Experimental findings from US20080233097A1, “Phosphorylation Site Of Mitogen-Activated Protein Kinases, Modified Proteins And Applications” (UNIVERSIDAD AUTONOMA DE MADRID, priority 2005, published 2008) are described below.

The target of assay [1] is T1, GRK2 (Bos taurus, UniProt P21146).
T1 construct: made in house; host or cells: Sf9 cells (baculovirus)
T1 sequence (P21146 1-689): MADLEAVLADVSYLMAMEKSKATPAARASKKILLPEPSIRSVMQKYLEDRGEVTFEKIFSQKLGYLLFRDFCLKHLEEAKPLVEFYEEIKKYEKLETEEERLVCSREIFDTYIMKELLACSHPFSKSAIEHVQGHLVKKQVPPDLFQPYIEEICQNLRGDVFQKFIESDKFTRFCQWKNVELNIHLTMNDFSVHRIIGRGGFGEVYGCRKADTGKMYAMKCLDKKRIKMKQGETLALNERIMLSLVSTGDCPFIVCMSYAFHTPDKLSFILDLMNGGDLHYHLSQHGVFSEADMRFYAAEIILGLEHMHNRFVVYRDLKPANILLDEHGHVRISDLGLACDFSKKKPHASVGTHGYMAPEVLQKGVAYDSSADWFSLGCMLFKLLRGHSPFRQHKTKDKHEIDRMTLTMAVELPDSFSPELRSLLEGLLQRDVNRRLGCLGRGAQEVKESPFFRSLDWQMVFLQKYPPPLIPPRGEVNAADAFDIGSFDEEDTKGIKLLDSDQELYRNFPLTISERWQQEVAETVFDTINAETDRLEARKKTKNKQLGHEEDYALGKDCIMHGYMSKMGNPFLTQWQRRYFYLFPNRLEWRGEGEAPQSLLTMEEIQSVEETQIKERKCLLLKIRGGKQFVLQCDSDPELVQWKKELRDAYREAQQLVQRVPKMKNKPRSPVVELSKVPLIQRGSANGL
Put plainly: phosphorylation of p38 mutants and truncated proteins by GRK2 in vitro. It is filed as biochemical. The conditions noted are these: GST fusion proteins, 30 minutes at 30° C. How it is done:
FIG. 6A: Proteins fused to GST (black rectangle in the protein schemes) were purified from bacteria transformed with the plasmids pGEX2T-p38α, pGEX4T-Mxi2 and pGEX4T-Mxi2Δ17: p38α, Mxi2 and Mxi2Δ17. The […] isoforms used as C-terminal truncated mutants for trying to limit the GRK2 phosphorylation site. […] Heparin (150 nM) was included as a specific GRK2 inhibitor. The reactions were stopped by adding SDS breaking buffer. The samples were resolved in 8% SDS-PAGE. For the purpose of assuring the inclusion of identical amounts of protein, they were first visualized in the gel by Coomassie Brilliant Blue (CBB) staining. Then the gel was dried and the radioactivity incorporated to the proteins (^32P) was detected. FIG. 6B: The truncated GST-280-360p38 protein, corresponding to the last 80 p38α amino acids, was generated by means of the Invitrogen Gateway system. Phosphorylation assays were carried out with Mxi2Δ17 as a p38 N-terminal, 280-360 p38 as C-terminal and with whole p38α in the same conditions as described in section A. The phosphorylation was detected by autoradiography (^32P) and controls of the amount of protein used in the assays were carried out concomitantly by Western blot with the anti-GST antibody. The presence of the GST-280-360p38 protein, which is not phosphorylated, is clearly observed. STD, mobility of standard molecular weight proteins.
FIG. 9A: p38T123A and p38T123D proteins, fused to GST, were made by directed mutagenesis in the prokaryotic expression plasmids pGEX2T. The ability of the recombinant GST-p38T123A and GST-p38T123D proteins to be GRK2 substrates in comparison to the wild GST-p38WT protein and at the final concentrations indicated in the Figure was assayed. The upper panels represent the obtained phosphorylation (32 P) and the lower panels show, by anti-p38N WB, the amount of recombinant protein used in the assays. […]
Heparin (150 nM) was included as a specific GRK2 inhibitor. […] Subsequently, the gel was dried and the radioactivity incorporated to the proteins (^32P) was detected. […]

Assay [2] has as its target T2, MAPKAPK2 (MK2) (Homo sapiens, UniProt P49137).
T2 construct: made in house
Description: GST pull-down of His-tagged MAPKAPK2. The format is binding. The conditions noted are these: GST-p38 300 nM, His-MK2 20 nM; vs T123A mutant or wild type. As for the experimental part: Purified GST-p38 and its T123 mutants (300 nM) were incubated in the presence of purified MKK6 (3 nM) or His-tagged MAPKAPK2 ([…], 20 nM) in a pull down assay with GST as a negative control. Sedimented proteins were developed by Western Blot using anti-MKK6, anti-Histidine (for His-MK2) or anti-GST (for total amounts of GST-p38s) antibodies. In all panels, results are representative of three independent experiments performed in duplicate.
The proteins GST, GST-p38 wt, GST-p38T123A and GST-p38T123D were bacterially expressed and isolated using Gluthatione-Sepharose 4B (GE-Amersham) following standard procedures (Murga, C. et al. High affinity binding of beta-adrenergic receptor kinase to microsomal membranes. Modulation of the activity of bound kinase by heterotrimeric G protein activation. J Biol Chem 271, 985-994 (1996)). His-MAPKAPK2 was purified using Probond resin (Invitrogen) following manufacturer's indications. MKK6CAM was purchased from Upstate Biotech. The amount of proteins detailed in the legend to each figure were incubated in binding buffer (25 mM Tris pH 7.5, 0.25 M NaCl, 10 mM MgCl2, 5 mM NaF and 0.5% BSA) for 30 min at 30° C. with constant shaking. ATP (50 μM) was added for MAPKAPK2 pull downs. Precipitates were washed three times (10 ml) with the same buffer containing 0.5% Triton X100. Precipitated complexes were resolved by SDS-PAGE and developed by Western Blot.

T2 sequence (P49137 with tags, fused parts or gaps): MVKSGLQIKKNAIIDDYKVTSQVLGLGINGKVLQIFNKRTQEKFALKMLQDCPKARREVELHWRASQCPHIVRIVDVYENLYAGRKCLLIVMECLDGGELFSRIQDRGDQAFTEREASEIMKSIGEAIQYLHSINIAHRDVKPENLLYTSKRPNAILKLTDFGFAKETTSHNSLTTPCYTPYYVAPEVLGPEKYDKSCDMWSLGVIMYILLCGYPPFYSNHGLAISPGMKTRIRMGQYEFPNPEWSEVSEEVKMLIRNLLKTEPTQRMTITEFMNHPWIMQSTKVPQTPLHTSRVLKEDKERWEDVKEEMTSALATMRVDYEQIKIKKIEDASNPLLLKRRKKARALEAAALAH

B1: p38T123D: p38α mutant; aspartic acid mimics the constitutively phosphorylated form of threonine 123 (protein, UniProt P47811 2-360, looked up, variant T123D)
Mitogen-activated protein …: SQERPTFYRQELNKTIWEVPERYQNLSPVGSGAYGSVCAAFDTKTGHRVAVKKLSRPFQSIIHAKRTYRELRLLKHMKHENVIGLLDVFTPARSLEEFNDVYLVTHLMGADLNNIVKCQKLDDDHVQFLIYQILRGLKYIHSADIIHRDLKPSNLAVNEDCELKILDFGLARHTDDEMTGYVATRWYRAPEIMLNWMHYNQTVDIWSVGCIMAELLTGRTLFPGTDHIDQLKLILRLVGTPGAELLKKISSESARNYIQSLAQMPKMNFANVFIGANPLAVDLLEKMLVLDSDKRITAAQALAHAYFAQYHDPDDEPVADPYDQSFESRDLLIDEWKSLTYDEVISFVPPPLDQEEMES
modifications: GST or Flag tag in some forms
In the case of B1, the “ability to be a GRK2 substrate (32P incorporation)” value in assay [1] is “none of the two mutant is a GRK2 substrate”. In assay [2], the “ability to associate to MK2” value is recorded as “severely impaired”.
